In patent US20250243281A1 (IMMUNITAS THERAPEUTICS, published 2025):
Like-named read-outs stand apart in the source and are kept apart here.

T1: hCLEC2D (human, UniProt Q9UHP7 1-191)
T1 construct: Overexpressed on HEK293 or K562 cells; the same id is used for endogenous CLEC2D on NALM6 and Raji cells; also called LLT1
T1 sequence: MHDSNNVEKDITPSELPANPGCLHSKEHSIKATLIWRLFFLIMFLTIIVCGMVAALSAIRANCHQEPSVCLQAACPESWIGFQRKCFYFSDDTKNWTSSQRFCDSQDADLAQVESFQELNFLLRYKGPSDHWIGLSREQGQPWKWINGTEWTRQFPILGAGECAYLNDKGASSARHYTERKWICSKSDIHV

T2: hKLRF1 (human, UniProt Q9NZS2 1-231)
T2 construct: Overexpressed on HEK293 cells
T2 sequence: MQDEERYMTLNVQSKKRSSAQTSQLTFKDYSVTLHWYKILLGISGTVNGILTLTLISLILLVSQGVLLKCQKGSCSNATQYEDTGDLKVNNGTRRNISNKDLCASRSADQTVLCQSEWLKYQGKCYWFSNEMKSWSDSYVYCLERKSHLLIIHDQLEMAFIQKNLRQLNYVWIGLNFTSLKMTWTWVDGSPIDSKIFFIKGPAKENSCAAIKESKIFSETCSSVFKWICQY

T3: hCLEC12B (human, UniProt Q2HXU8 1-276)
T3 construct: Overexpressed on HEK293 cells
T3 sequence: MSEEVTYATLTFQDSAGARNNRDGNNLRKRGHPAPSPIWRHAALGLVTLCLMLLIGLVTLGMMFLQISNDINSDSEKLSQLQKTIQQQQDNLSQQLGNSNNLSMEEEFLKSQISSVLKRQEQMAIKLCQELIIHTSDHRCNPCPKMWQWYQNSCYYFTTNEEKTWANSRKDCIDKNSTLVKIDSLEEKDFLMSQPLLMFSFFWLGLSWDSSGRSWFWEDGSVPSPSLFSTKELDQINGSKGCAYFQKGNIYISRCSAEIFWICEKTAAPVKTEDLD

T4: hKLRF2 (human, UniProt D3W0D1 1-207)
T4 construct: Overexpressed on HEK293 cells
T4 sequence: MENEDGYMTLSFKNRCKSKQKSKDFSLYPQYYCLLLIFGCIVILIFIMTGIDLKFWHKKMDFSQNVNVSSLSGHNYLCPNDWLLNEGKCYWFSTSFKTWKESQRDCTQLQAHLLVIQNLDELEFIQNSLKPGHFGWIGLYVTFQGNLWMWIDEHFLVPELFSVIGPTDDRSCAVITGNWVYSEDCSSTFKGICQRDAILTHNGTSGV


How the values were obtained:
[1] = biological target: T1, hCLEC2D; assay: flow cytometry; 100 nM antibody on HEK293 cells expressing CLEC2D; Alexa Fluor 647 anti-human IgG; MFI
Experimental: (§1) For the antibody binding assay, all cell lines were washed in phosphate-buffered saline with 0.1% bovine serum albumin (PBSA) and seeded in a 96 well plate at a density of 4×10⁴ cells per well. Washed cells were resuspended in 100 nM of antibody (a saturating concentration to measure maximum binding on cells) and incubated at room temperature for 30 minutes. […] Cells were analyzed by flow cytometry with a Thermo Fisher Attune flow cytometer.
(§2) Data were analyzed using FlowJo software. MFI for each sample was calculated and exported into Graphpad Prism.

[2] = biological target: T2, hKLRF1; assay: flow cytometry; 100 nM antibody on HEK293 cells expressing KLRF1; Alexa Fluor 647 anti-human IgG; MFI
Experimental: as §1, §2

[3] = biological target: T1, hCLEC2D; assay: flow cytometry, HEK293 transfectants, 100 nM antibody;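 further: antibody applied at a saturating level and incubated with cells for 30 min at room temperature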
Experimental: as §1, §2

[4] = biological target: T2, hKLRF1; assay: as above
Experimental: as §1, §2

[5] = biological target: T3, hCLEC12B; assay: as above
Experimental: as §1, §2

[6] = biological target: T4, hKLRF2; assay: as above
Experimental: as §1, §2

[7] = biological target: T4, hKLRF2; assay: flow cytometry; 100 nM antibody on HEK293 cells expressing KLRF2; Alexa Fluor 647 anti-human IgG; MFI
Experimental: as §1, §2

[8] = biological target: T3, hCLEC12B; assay: flow cytometry; 100 nM antibody on HEK293 cells expressing CLEC12B; Alexa Fluor 647 anti-human IgG; MFI
Experimental: as §1, §2

[9] = biological target: T3, hCLEC12B; assay: as above; remark: listed apart in the source
Experimental: as §1, §2

[10] = biological target: T1, hCLEC2D; assay: flow cytometry; 100 nM antibody on HEK293 cells expressing CLEC2D; Alexa Fluor 647 anti-human IgG; MFI; remark: listed apart in the source
Experimental: as §1, §2

[11] = biological target: T4, hKLRF2; assay: flow cytometry; 100 nM antibody on HEK293 cells expressing KLRF2; Alexa Fluor 647 anti-human IgG; MFI; remark: listed apart in the source
Experimental: as §1, §2

[12] = biological target: T2, hKLRF1; assay: flow cytometry; 100 nM antibody on HEK293 cells expressing KLRF1; Alexa Fluor 647 anti-human IgG; MFI; remark: listed apart in the source
Experimental: as §1, §2

binding result [1] | binding result [2] | % of CD161 binding [3] | % of CD161 binding [4] | % of CD161 binding [5] | % of CD161 binding [6] | binding result [7] | binding result [8] | binding result [9] | binding result [10] | binding result [11] | binding result [12] | Binder
– | – | 0.865% | 0.061% | 0.088% | 0.048% | – | – | no binding (tested: 100 nM) | no binding (tested: 100 nM) | no binding (tested: 100 nM) | no binding (tested: 100 nM) | Ab16 (antibody, human IgG1, V domains shown, IgG purified from yeast culture) VH: QVQLVESGGGLVKPGGSLRLSCAASGFTFSDYYMSWIRQAPGKGLEWVSYISPSGATIAYADSVKGRFTISRDNSKNTLYLQMNSLRAEDTAVYYCARSLMATGTHLYFDLWGRGTLVTVSS VL: DIQLTQSPSSVSASVGDRVTITCRASQGISSWLAWYQQKPGKAPKLLIYAASGLQSGVPSRFSGSGSGTDFTLTISSLQPEDFATYYCQQSTSFPPYTFGGGTKVEIK
– | – | 1.08% | 0.078% | 0.038% | 0.051% | – | – | no binding (tested: 100 nM) | no binding (tested: 100 nM) | no binding (tested: 100 nM) | no binding (tested: 100 nM) | Ab17 (antibody, human IgG1, V domains shown, IgG purified from yeast culture) VH: QVQLVESGGGLVKPGGSLRLSCAASGFTFSDYYMSWIRQAPGKGLEWVSYISPSGATIYYADSVKGRFTISRDNAKNSLYLQMNSLRAEDTAVYYCARSLMSTGTHLYFDLWGRGTLVTVSS VL: DIQLTQSPSSVSASVGDRVTITCRASQGISSWLAWYQQKPGKAPKLLIYAASSLQSGVPSRFSGSGSGTDFTLTISSLQPEDFATYYCQQVTSVPPYTFGGGTKVEIK
– | – | 1.02% | 0.09% | 0.064% | 0.054% | – | – | no binding (tested: 100 nM) | no binding (tested: 100 nM) | no binding (tested: 100 nM) | no binding (tested: 100 nM) | Ab14 (antibody, human IgG1, V domains shown, IgG purified from yeast culture) VH: QVQLVESGGGLVKPGGSLRLSCAASGFTFGQYYMSWIRQAPGKGLEWVSYISPSGATIAYADSVKGRFTISRDNAKNSLYLQMNSLRAEDTAVYYCARSLMSTGTHLYFDLWGRGTLVTVSS VL: DIQLTQSPSSVSASVGDRVTITCRASQGISDWLAWYQQKPGKAPKLLIYAASSLQSGVPSRFSGSGSGTDFTLTISSLQPEDFATYYCQQVTSFPPYTFGGGTKVEIK

Second part, the binder before the results:

Binder | binding result [1] | binding result [2] | % of CD161 binding [3] | % of CD161 binding [4] | % of CD161 binding [5] | % of CD161 binding [6] | binding result [7] | binding result [8] | binding result [9] | binding result [10] | binding result [11] | binding result [12]
Ab7 (antibody, human IgG1, V domains shown, IgG purified from yeast culture) VH: EVQLLESGGGLVQPGGSLRLSCAASGFTFGQYAMSWVRQAPGKGLEWVSAISAAGGTTYYADSVKGRFTISRDNSKNTLYLQMNSLRAEDTAVYYCAKPLDSSQWADFDLWGRGTLVTVSS VL: DIQLTQSPSSVSASVGDRVTITCRASQGISSWLAWYQQKPGKAPKLLIYAASFLQSGVPSRFSGSGSGTDFTLTISSLQPEDFATYYCQQASVLPITFGGGTKVEIK | no binding (tested: 100 nM) | no binding (tested: 100 nM) | 1.09% | 0.018% | 0.011% | 0.04% | no binding (tested: 100 nM) | no binding (tested: 100 nM) | – | – | – | –
Ab1 (antibody, human IgG1, V domains shown, IgG purified from yeast culture) VH: EVQLLESGGGLVQPGGSLRLSCAASGFAFSTYAMSWVRQAPGKGLEWVSAISAAGGTTYYADSVKGRFTISRDNSKNTLYLQMNSLRAEDTAVYYCAKPLDSSLWADFDLWGRGTLVTVSS VL: DIQMTQSPSSVSASVGDRVTITCRASQGIDSWLAWYQQKPGKAPKLLIYAASSLQSGVPSRFSGSGSGTDFTLTISSLQPEDFATYYCQQASVLPITFGGGTKVEIK | no binding (tested: 100 nM) | no binding (tested: 100 nM) | 0.975% | 0.073% | 0.04% | 0.036% | no binding (tested: 100 nM) | no binding (tested: 100 nM) | – | – | – | –
Ab13 (antibody, human IgG1, V domains shown, IgG purified from yeast culture) VH: QVQLVESGGGLVKPGGSLRLSCAASGFTFANYYMSWIRQAPGKGLEWVSYISPSGATIAYADSVKGRFTISRDNAKNSLYLQMNSLRAEDTAVYYCARSLMATGTHLYFDLWGRGTLVTVSS VL: DIQLTQSPSSVSASVGDRVTITCRASSGISSWLAWYQQKPGKAPKLLIYAASELQSGVPSRFSGSGSGTDFTLTISSLQPEDFATYYCQQATSFPPYTFGGGTKVEIK | – | – | 0.907% | 0.106% | 0.175% | 0.089% | – | – | no binding (tested: 100 nM) | no binding (tested: 100 nM) | no binding (tested: 100 nM) | no binding (tested: 100 nM)
Ab19 (antibody, human IgG1, V domains shown, IgG purified from yeast culture) VH: QVQLVESGGGLVKPGGSLRLSCAASGFTFSQYYMSWIRQAPGKGLEWVSYISPSGATIYYADSVKGRFTISRDNAKNSLYLQMNSLRAEDTAVYYCARSLMATGTHLYFDLWGRGTLVTVSS VL: DIQLTQSPSSVSASVGDRVTITCRASQGISSWLAWYQQKPGKAPKLLIYAASALQSGVPSRFSGSGSGTDFTLTISSLQPEDFATYYCQQVTSAPPYTFGGGTKVEIK | – | – | 0.97% | 0.305% | 0.26% | 0.22% | – | – | no binding (tested: 100 nM) | no binding (tested: 100 nM) | no binding (tested: 100 nM) | no binding (tested: 100 nM)
Ab15 (antibody, human IgG1, V domains shown, IgG purified from yeast culture) VH: QVQLVESGGGLVKPGGSLRLSCAASGFTFPQYYMSWIRQAPGKGLEWVSYISPSGATIYYADSVKGRFTISRDNAKNSLYLQMNSLRAEDTAVYYCARSLMSTGTHLYFDLWGRGTLVTVSS VL: DIQLTQSPSSVSASVGDRVTITCRASQGISSWLAWYQQKPGKAPKLLIYAASSLQSGVPSRFSGSGSGTDFTLTISSLQPEDFATYYCQQVTSTPPYTFGGGTKVEIK | – | – | 0.935% | 0.114% | 0.071% | 0.067% | – | – | no binding (tested: 100 nM) | no binding (tested: 100 nM) | no binding (tested: 100 nM) | no binding (tested: 100 nM)
Ab20 (antibody, human IgG1, V domains shown, IgG purified from yeast culture) VH: QVQLVESGGGLVQPGGSLRLSCAASGFTFSQYYMSWIRQAPGKGLEWVSYISPSGATIAYADSVKGRFTISRDNAKNSLYLQMNSLRAEDTAVYYCARSLMSTGTHLYFDLWGRGTLVTVSS VL: DIQLTQSPSSVSASVGDRVTITCRASQGISSWLAWYQQKPGKAPKLLIYAASVLQSGVPSRFSGSGSGTDFTLTISSLQPEDFATYYCQQVTSFLPYTFGGGTKVEIK | – | – | 0.968% | 0.132% | 0.061% | 0.054% | – | – | no binding (tested: 100 nM) | no binding (tested: 100 nM) | no binding (tested: 100 nM) | no binding (tested: 100 nM)
